# Earlier results in article PMC3384300.
# Tested on: MS2 coat protein (bacteriophage MS2?)
substance,measurement,value
natural MS2 coat protein aptamer,Kd,0.02 nM
